Measurements reported in patent US9724381B2 (THE ADMINISTRATORS OF THE TULANE EDUCATIONAL FUND, priority 2009, dated 2017).
Where no end group is shown, it is not given here. [ ]: non-standard residue; d: D form. The star is where a group is joined. d2Nal = N[C@H](Cc1ccc2ccccc2c1)C(=O)O; dCha = N[C@H](CC1CCCCC1)C(=O)O; Picolinoyl = O=C(c1ccccn1)*; dPal = not defined here; Aib = CC(C)(N)C(=O)O; iPr = CC(C)*

Target: Ghrelin/GHRP/GHS Receptor (Rattus norvegicus, UniProt O08725)
Assay: In vitro GH release from cell culture of pituitary cells
Format: cell-based
Design: After dispersion, the cells were collected by centrifugation, wash with DMEM and placed into culture well; endogenous in cells; host or cells: dispersed primary rat anterior pituitary cells
Conditions: Table 8
Procedure: In vitro GH Release-Female rats of the CD-1 strain were housed in a constant temperature room at 24° C. with 14 h light and 10 h darkness. The rats were fed Purina Rat chow and water at libitum. All studies were started between 0800-1000 hours. Pituitaries of mature female Sprague Dawley rats were rapidly removed after decapitation, neurointermediate lobe discarded and then placed in a pH 7.4 buffer. The pituitaries were cut into ˜3-mm pieces and then transferred to a flask containing HEPS buffer with trypsin and incubated at 37° C. Cells were triturated several times during this period. After dispersion, the cells were collected by centrifugation, wash with DMEM and placed into culture well. Cell cultures were maintained for 4 days at 37° with 8% CO2 added to the incubator atmosphere. After 4 days in culture, cells were washed with lactated Ringer's solution adjusted to pH 7.2-7.4 and then vehicle, peptide alone or peptide plus stimulator was added to media. Incubation time was 60-120 minutes after which media was removed from each well for GH determination. The GH RIA reagents were distributed by the NIH. Control data was collected from cell cultures treated with only the corresponding vehicle in the absence of peptide or stimulator. Control stimulated data was collected from cell cultures treated with stimulator alone in the absence of any peptide.

[1] = peptide antagonist dosage 3 (head prints μg/i.v.)
[2] = peptide antagonist dosage 10 (head prints μg/i.v.)
[3] = peptide antagonist dosage 30 (head prints μg/i.v.)
[4] = peptide antagonist dosage 100 (head prints μg/i.v.)
[5] = peptide antagonist dosage 1 (head prints μg/i.v.)

Chain of Ghrelin/GHRP/GHS Receptor (O08725 whole entry): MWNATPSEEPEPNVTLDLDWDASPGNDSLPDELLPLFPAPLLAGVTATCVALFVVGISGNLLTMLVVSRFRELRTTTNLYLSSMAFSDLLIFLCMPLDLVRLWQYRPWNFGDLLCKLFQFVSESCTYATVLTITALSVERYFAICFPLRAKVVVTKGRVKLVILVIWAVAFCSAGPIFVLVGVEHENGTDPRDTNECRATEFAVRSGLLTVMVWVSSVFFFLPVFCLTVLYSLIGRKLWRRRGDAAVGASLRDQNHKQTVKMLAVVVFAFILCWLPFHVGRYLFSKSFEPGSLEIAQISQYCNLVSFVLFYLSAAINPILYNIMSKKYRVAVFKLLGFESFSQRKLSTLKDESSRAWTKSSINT

Substance	Unstimulated Basal GH release from cell cultures of pituitary cells [1] [ng/mL]	Unstimulated Basal GH release from cell cultures of pituitary cells [2] [ng/mL]	Unstimulated Basal GH release from cell cultures of pituitary cells [3] [ng/mL]	Unstimulated Basal GH release from cell cultures of pituitary cells [4] [ng/mL]	Unstimulated Basal GH release from cell cultures of pituitary cells [5] [ng/mL]
His-DTrp-DTrp-Lys-NH2 (H[dW][dW]K-NH2; N-terminus assumed; SMILES NCCCC[C@H](NC(=O)[C@@H](Cc1c[nH]c2ccccc12)NC(=O)[C@@H](Cc1c[nH]c2ccccc12)NC(=O)[C@@H](N)Cc1c[nH]cn1)C(N)=O)	1124 ± 37	749 ± 10	615 ± 41	–	–
Arg-DTrp-Leu-Tyr-Trp-Pro(cyclic Arg-Pro)	1480 ± 19	802 ± 26	601 ± 16	509 ± 49	–
Ac-DβNal-DTrp-NH2	1264 ± 2	980 ± 72	699 ± 7	–	–
DLys-Tyr-DTrp-DTrp-Phe-NH2 ([dK]Y[dW][dW]F-NH2; N-terminus assumed; SMILES NCCCC[C@@H](N)C(=O)N[C@@H](Cc1ccc(O)cc1)C(=O)N[C@H](Cc1c[nH]c2ccccc12)C(=O)N[C@H](Cc1c[nH]c2ccccc12)C(=O)N[C@@H](Cc1ccccc1)C(N)=O)	1175 ± 77	1129 ± 6	744 ± 44	–	1451 ± 19

The next lines start with results.

Unstimulated Basal GH release from cell cultures of pituitary cells [1] [ng/mL]	Unstimulated Basal GH release from cell cultures of pituitary cells [2] [ng/mL]	Unstimulated Basal GH release from cell cultures of pituitary cells [3] [ng/mL]	Unstimulated Basal GH release from cell cultures of pituitary cells [4] [ng/mL]	Substance	Unstimulated Basal GH release from cell cultures of pituitary cells [5] [ng/mL]
1013 ± 207	976 ± 13	928 ± 16	–	Ac-DβNal-PicLys-ILys-DPhe-NH2 (Ac-[d2Nal]K(Picolinoyl)K(iPr)[dF]-NH2; SMILES CC(=O)N[C@H](Cc1ccc2ccccc2c1)C(=O)N[C@@H](CCCCNC(=O)c1ccccn1)C(=O)N[C@@H](CCCCNC(C)C)C(=O)N[C@H](Cc1ccccc1)C(N)=O) [Ac-DβNal-PlcLys-ILys-DPhe-NH2]	–
1081 ± 50	997 ± 30	425 ± 25	–	DPal-Phe-DTrp-Phe-Met-NH2 ([dPal]F[dW]FM-NH2; reading uncertain; also: printed as DPal-Phe-DTrp-Phe-Met-NH2)	–
–	267 ± 27	276 ± 65	360 ± 84	DPhe-Ala-Phe-DPhe-Lys-NH2 ([dF]AF[dF]K-NH2; N-terminus assumed; SMILES C[C@H](NC(=O)[C@H](N)Cc1ccccc1)C(=O)N[C@@H](Cc1ccccc1)C(=O)N[C@H](Cc1ccccc1)C(=O)N[C@@H](CCCCN)C(N)=O)	–
826 ± 32	602 ± 53	492 ± 11	–	αAib-DTrp-DcyclohexylAla-NH2 ([Aib]-[dW]-[dCha]-NH2; N-terminus assumed; SMILES CC(C)(N)C(=O)N[C@H](Cc1c[nH]c2ccccc12)C(=O)N[C@H](CC1CCCCC1)C(N)=O)	980 ± 44
1105 ± 18	891 ± 4	567 ± 24	–	DPal-Trp-DPhe-Phe-Met-NH2 ([dPal]W[dF]FM-NH2; reading uncertain; also: printed as DPal-Trp-DPhe-Phe-Met-NH2)	–
